B1: SFPQ (protein, UniProt P23246 1-707, looked up)
Splicing factor, proline- and …: MSRDRFRSRGGGGGGFHRRGGGGGRGGLHDFRSPPPGMGLNQNRGPMGPGPGQSGPKPPIPPPPPHQQQQQPPPQQPPPQQPPPHQPPPHPQPHQQQQPPPPPQDSSKPVVAQGPGPAPGVGSAPPASSSAPPATPPTSGAPPGSGPGPTPTPPPAVTSAPPGAPPPTPPSSGVPTTPPQAGGPPPPPAAVPGPGPGPKQGPGPGGPKGGKMPGGPKPGGGPGLSTPGGHPKPPHRGGGEPRGGRQHHPPYHQQHHQGPPPGGPGGRSEEKISDSEGFKANLSLLRRPGEKTYTQRCRLFVGNLPADITEDEFKRLFAKYGEPGEVFINKGKGFGFIKLESRALAEIAKAELDDTPMRGRQLRVRFATHAAALSVRNLSPYVSNELLEEAFSQFGPIERAVVIVDDRGRSTGKGIVEFASKPAARKAFERCSEGVFLLTTTPRPVIVEPLEQLDDEDGLPEKLAQKNPMYQKERETPPRFAQHGTFEYEYSQRWKSLDEMEKQQREQVEKNMKDAKDKLESEMEDAYHEHQANLLRQDLMRRQEELRRMEELHNQEMQKRKEMQLRQEEERRRREEEMMIRQREMEEQMRRQREESYSRMGYMDPRERDMRMGGGGAMNMGDPYGSGGQKFPPLGGGGGIGYEANPGVPPATMSGSMMGSDMRTERFGQGGAGPVGGQGPRGMGPGTPAGYGRGREEYEGPNKKPRF
B2: CAVIN1 (protein, UniProt Q6NZI2 1-390, looked up)
Caveolae-associated protein 1: MEDPTLYIVERPLPGYPDAEAPEPSSAGAQAAEEPSGAGSEELIKSDQVNGVLVLSLLDKIIGAVDQIQLTQAQLEERQAEMEGAVQSIQGELSKLGKAHATTSNTVSKLLEKVRKVSVNVKTVRGSLERQAGQIKKLEVNEAELLRRRNFKVMIYQDEVKLPAKLSISKSLKESEALPEKEGEELGEGERPEEDAAALELSSDEAVEVEEVIEESRAERIKRSGLRRVDDFKKAFSKEKMEKTKVRTRENLEKTRLKTKENLEKTRHTLEKRMNKLGTRLVPAERREKLKTSRDKLRKSFTPDHVVYARSKTAVYKVPPFTFHVKKIREGQVEVLKATEMVEVGADDDEGGAERGEAGDLRRGSSPDVHALLEITEESDAVLVDKSDSD
B3: HSPD1 (protein, UniProt P10809 27-573, looked up)
60 kDa heat shock protein, …: AKDVKFGADARALMLQGVDLLADAVAVTMGPKGRTVIIEQSWGSPKVTKDGVTVAKSIDLKDKYKNIGAKLVQDVANNTNEEAGDGTTTATVLARSIAKEGFEKISKGANPVEIRRGVMLAVDAVIAELKKQSKPVTTPEEIAQVATISANGDKEIGNIISDAMKKVGRKGVITVKDGKTLNDELEIIEGMKFDRGYISPYFINTSKGQKCEFQDAYVLLSEKKISSIQSIVPALEIANAHRKPLVIIAEDVDGEALSTLVLNRLKVGLQVVAVKAPGFGDNRKNQLKDMAIATGGAVFGEEGLTLNLEDVQPHDLGKVGEVIVTKDDAMLLKGKGDKAQIEKRIQEIIEQLDVTTSEYEKEKLNERLAKLSDGVAVLKVGGTSDVEVNEKKDRVTDALNATRAAVEEGIVLGGGCALLRCIPALDSLTPANEDQKIGIEIIKRTLKIPAMTIAKNAGVEGSLIVEKIMQSSSEVGYDAMAGDFVNMVEKGIIDPTKVVRTALLDAAGVASLLTTAEVVVTEIPKEEKDPGMGAMGGMGGGMGGGMF
B4: FUS (protein, UniProt P35637 1-526, looked up)
RNA-binding protein FUS: MASNDYTQQATQSYGAYPTQPGQGYSQQSSQPYGQQSYSGYSQSTDTSGYGQSSYSSYGQSQNTGYGTQSTPQGYGSTGGYGSSQSSQSSYGQQSSYPGYGQQPAPSSTSGSYGSSSQSSSYGQPQSGSYSQQPSYGGQQQSYGQQQSYNPPQGYGQQNQYNSSSGGGGGGGGGGNYGQDQSSMSSGGGSGGGYGNQDQSGGGGSGGYGQQDRGGRGRGGSGGGGGGGGGGYNRSSGGYEPRGRGGGRGGRGGMGGSDRGGFNKFGGPRDQGSRHDSEQDNSDNNTIFVQGLGENVTIESVADYFKQIGIIKTNKKTGQPMINLYTDRETGKLKGEATVSFDDPPSAKAAIDWFDGKEFSGNPIKVSFATRRADFNRGGGNGRGGRGRGGPMGRGGYGGGGSGGGGRGGFPSGGGGGGGQQRAGDWKCPNPTCENMNFSWRNECNQCKAPKPDGPGGGPGGSHMGGNYGDDRRGGRGGYDRGGYRGRGGDRGGFRGGRGGGDRGGFGPGKMDSRGEHRQDRRERPY
B5: DARS1 (protein, UniProt P14868 1-501, looked up)
Aspartate--tRNA ligase, …: MPSASASRKSQEKPREIMDAAEDYAKERYGISSMIQSQEKPDRVLVRVRDLTIQKADEVVWVRARVHTSRAKGKQCFLVLRQQQFNVQALVAVGDHASKQMVKFAANINKESIVDVEGVVRKVNQKIGSCTQQDVELHVQKIYVISLAEPRLPLQLDDAVRPEAEGEEEGRATVNQDTRLDNRVIDLRTSTSQAVFRLQSGICHLFRETLINKGFVEIQTPKIISAASEGGANVFTVSYFKNNAYLAQSPQLYKQMCICADFEKVFSIGPVFRAEDSNTHRHLTEFVGLDIEMAFNYHYHEVMEEIADTMVQIFKGLQERFQTEIQTVNKQFPCEPFKFLEPTLRLEYCEALAMLREAGVEMGDEDDLSTPNEKLLGHLVKEKYDTDFYILDKYPLAVRPFYTMPDPRNPKQSNSYDMFMRGEEILSGAQRIHDPQLLTERALHHGIDLEKIKAYIDSFRFGAPPHAGGGIGLERVTMLFLGLHNVRQTSMFPRDPKRLTP
B6: CAV1 (protein, UniProt Q03135 2-178, looked up)
Caveolin-1: SGGKYVDSEGHLYTVPIREQGNIYKPNNKAMADELSEKQVYDAHTKEIDLVNRDPKHLNDDVVKIDFEDVIAEPEGTHSFDGIWKASFTTFTVTKYWFYRLLSALFGIPMALIWGIYFAILSFLHIWAVVPCIKSFLIEIQCISRVYSIYVHTVCDPLFEAVGKIFSNVRINLQKEI

Assays:
HeLa cell extract preys = test: PDZ-AP-MS, biotinylated MBP-PDZ baits; type: binding, human; conditions: for Ratio: fold enrichment of prey; for Difference: log2 enrichment of prey
Method: (§1) For PDZ-AP-MS experiments, PDZ domains were cloned as His6-AviTag-MBP-PDZ constructs. For co-expression with BirA, E. coli BL21(DE3) cells were co-transformed with His6-AviTag-MBP, or His6-AviTag-MBP-PDZ-coding and PET21a-BirA (Addgene #20857) plasmids. Simultaneously to IPTG induction, 50 µM biotin was added to the media. After cell harvesting, the lysis buffer was also supplemented with 50 µM biotin. Otherwise, expression and double affinity purification was identical as previously described in details.
(§2) For PBM-AP-MS experiments, 30 μl streptavidin resin was mixed with biotin or peptide at 50–60 μM concentration in 6–6.5 resin volume for 60 min to achieve resin saturation. For PDZ-AP-MS experiments, 30 μl streptavidin resin was mixed with biotinylated MBP or MBP-PDZ at 40-50 μM concentration in >1000× resin volume for 60 min to achieve resin saturation. After saturation, resins were washed a single time (ten resin volume, holdup buffer), and were depleted with biotin (1 mM biotin, 5–10 resin volume, 10 min). Finally, resins were washed two times. 0.5 ml 2 mg/ml cell lysate was added to the dry resin (1 mg total input) and were incubated at 4 °C for 2 h. Then, the beads were washed three times with 10 resin volume buffer containing: 50 mM TRIS pH 8.5, 150 mM NaCl, 1% TritonX-100, 10× complete EDTA-free protease inhibitor cocktail, 2 mM EDTA, 1 mM TCEP. Then, the beads were washed two times with ten resin volume buffer containing: 50 mM TRIS pH 8.5, 150 mM NaCl, 1 mM TCEP. Finally, captured protein was eluted from the resin in two steps and the eluted fractions were pooled. For each elution the beads were incubated for 30 min with three resin volume buffer containing: 20 mM TRIS pH8.5, 100 mM NaCl, 500 μM TCEP, 8 M Urea. Between each step, the beads were separated by mild centrifugation and the supernatant was removed by gentle pipetting.
(§3) The samples were precipitated with TCA 20% overnight at 4 °C and centrifuged at 14,000 rpm for 10 min at 4 °C. The protein pellets were washed twice with 1 mL cold acetone and air dried. The protein extracts were solubilized in urea 8 M, reduced with 5 mM TCEP for 30 min, and alkylated with 10 mM iodoacetamide for 30 min in the dark. Double digestion was performed at 37 °C with 500 ng endoproteinase Lys-C for 4 h, followed by fourfold dilution and an overnight digestion with 500 ng trypsin. Peptide mixtures were then desalted on C18 spin-column and dried on Speed-Vacuum.
(§4) Samples were analyzed using an Ultimate 3000 nano-RSLC (Thermo Scientific, San Jose California) coupled in line with a LTQ-Orbitrap ELITE mass spectrometer via a nano-electrospray ionization source (Thermo Scientific, San Jose California). Peptide mixtures were injected in 0.1% TFA on a C18 Acclaim PepMap100 trap-column (75 µm ID × 2 cm, 3 µm, 100 Å, Thermo Fisher Scientific) for 3 min at 5 µL/min with 2% ACN, 0.1% FA in H2O and then separated on a C18 Accucore nano-column (75 µm ID × 50 cm, 2.6 µm, 150 Å, Thermo Fisher Scientific) at 220 nl/min and 38 °C with a 90 min linear gradient from 5% to 30% buffer B (A: 0.1% FA in H2O/B: 99% ACN, 0.1% FA in H2O), regeneration at 5% B. The mass spectrometer was operated in positive ionization mode, in data-dependent mode with survey scans from m/z 350–1500 acquired in the Orbitrap at a resolution of 120,000 at m/z 400. The 20 most intense peaks from survey scans were selected for further fragmentation in the Linear Ion Trap with an isolation window of 2.0 Da and were fragmented by CID with normalized collision energy of 35%. (TOP20CID method) Unassigned and single charged states were excluded from fragmentation. The Ion Target Value for the survey scans (in the Orbitrap) and the MS2 mode (in the Linear Ion Trap) were set to 1E6 and 5E3 respectively and the maximum injection time was set to 100 ms for both scan modes. Dynamic exclusion was set to 20 s after one repeat count with mass width at ±10 ppm. […]

HaCat cell extract preys = test: PDZ-AP-MS, biotinylated MBP-PDZ baits; type: binding, human; conditions: for Difference log2: enrichment of prey; for Ratio SNX27/MBP: bait SNX27 PDZ
Method: as §1, §2, §3, §4

[1] = bait SCRIB_2 PDZ (biotinylated MBP-PDZ) vs MBP control
[2] = bait SCRIB_2 PDZ vs MBP control

Molecule | Difference (HeLa cell extract preys; [1]) | Ratio (HeLa cell extract preys; [2]) | Difference log2 (HaCat cell extract preys; bait SNX27 PDZ vs MBP) | Ratio SNX27/MBP (HaCat cell extract preys; fold change of prey) | also measured
B1 | 5.287 | 39.0318 | – | – | Ratio (HeLa cell extract preys; bait DLG1_1 PDZ vs MBP control): 33.0339; Difference (HeLa cell extract preys; bait DLG1_1 PDZ vs MBP control): 5.046
B2 | – | – | 7.364 | 164.68 | –
B3 | – | – | – | – | Difference log2 (HaCat cell extract preys; bait DLG1_1 PDZ vs MBP): 6.29; Ratio DLG1_1/MBP (HaCat cell extract preys; bait DLG1_1 PDZ, fold change of prey): 78.233; Ratio (HeLa cell extract preys; bait TX1BP3 PDZ vs MBP control): 104.688; Difference (HeLa cell extract preys; bait TX1BP3 PDZ vs MBP control): 6.71
B4 | 4.68 | 25.6321 | – | – | –
B5 | – | – | – | – | Difference log2 (HaCat cell extract preys; bait SCRIB_2 PDZ vs MBP): 3.605; Ratio SCRIB_2/MBP (HaCat cell extract preys; bait SCRIB_2 PDZ, fold change of prey): 12.1719
B6 | – | – | 8.5897 | 385.263 | –
